Experimental data: the supplement of paper PMC12042874
± gives the uncertainty stated by the source.

assay: amyloid nucleation score (Sup35N fusion, yeast selection) (log enrichment); library NNK2; higher = more nucleation; inactive = no reads after selection
How it was run: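 Nucleation score is defined as the DiMSum log enrichment of output over input reads, with centring on the mode score of non-aggregating sequences. A minimum of 100 input reads was required for each sequence. Reads came from Illumina sequencing of plasmid inserts from psi-negative yeast expressing Sup35N fused to peptides of 20 random codons, induced with 100 μM copper sulfate for 24 hours and grown 7 days at 30°C on medium lacking adenine and uracil.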

Substance	amyloid nucleation score
AISDGPET	0.746 ± 0.43
AISHQPLWLLCHVVHLFRNS	0.279 ± 0.32
AKRDMAKKYLSGYHGVLWYV	0.077 ± 0.63
AKVCLYIAICLSLVNS	2.98 ± 0.065
ALCKFRDFFVMYNTGWHTVQ	-0.935 ± 1.1
ALENNIDPLGELASVPGCSG	0.843 ± 0.27
ALFFRTKTKHWVSCRFLMS	2.86 ± 0.078
ALFYLSCQPSTGALESRYLG	1.73 ± 0.29
ALGVPLYMIEGIGKCLLSLK	1.24 ± 0.43
ALLDHFPDEGHFKATFISSI	0.85 ± 0.58
ALLVILLDCLQFIYMTELNC	-0.032 ± 1.1
ALLWCQMWERDRSEFPIGGF	1.2 ± 0.45
ALMTVASRKTLIPVGAKQMN	inactive
ALPKFSNNYLYEFLWFSRYL	-0.538 ± 0.76
ALRDFS	0.465 ± 0.8
ALRLLSFKVMVVEDYLTMTL	2.91 ± 0.098
ALRTPCYSAMHLGAWVFVCF	3.31 ± 0.14
ALVLRATVVVGIVKPGHAAD	0.523 ± 0.32
ALVVLFTCGCSGMLVYNAWS	0.841 ± 0.13
AMLLANALIWNRICGDRRLA	0.823 ± 0.4
ANFGALHRAHESVECSLY	inactive

Substance	amyloid nucleation score
ANVWRSLFAFTIANVTIPR	5.714 ± 0.045
APRGASALGCVYSDCSVVSI	0.058 ± 1
APSGRHFFTFTPC	0.605 ± 0.36
AQAFLNGVGRLLVCTRTCRN	0.895 ± 0.81
AQDWVARIRWSVRQFYGARC	2.18 ± 0.14
AQVKKLDRARCRFQRVV	-1.4 ± 0.78
ARLSWWGS	-0.184 ± 0.29
ARNTTGGSYV	0.504 ± 0.74
ARPIKFYKKLYFSCMIELLR	-1.38 ± 0.54
ARSRFSYKMRYPACGVISSR	-0.472 ± 0.79
ARYMSQVRRTSSHTLNEKI	0.545 ± 0.51
ASCNKGPEKSGQLFLLSAFL	-0.641 ± 0.49
ASFFDTVNCSWFSGIFVMGF	1.59 ± 0.21
ASGEDVNPSVCFHTTAMLYQ	0.98 ± 0.66
ASGNRTFVVMLLNRRKMMST	0.008 ± 0.48
ASLFFM	0.707 ± 0.34
ASLIRGATKGQTVCEMALSG	-0.07 ± 0.27
ASMVSVSVDEFGGFLPSCVS	-0.55 ± 0.46
ASQRTVA	1.6 ± 0.36
ASRPWMMYPHESARRSR	1.6 ± 0.22
ASSRFDDVINDRIRILVCAV	-0.102 ± 0.49

Substance	amyloid nucleation score
ASSTNVYLIIIGLWSAAM	2.46 ± 0.18
ASSWGVNGRVNKISRTG	1.32 ± 0.18
ASTLPYYECEYR	0.343 ± 0.18
ASVAGSV	0.781 ± 0.27
ASWYRMWMWCEHTSSRLCVK	5.268 ± 0.037
ATHKVWFESGYAHTPLVYLF	-0.588 ± 0.78
ATKRGVHSQLCDCLRCMEFS	0.386 ± 0.32
ATSMVSSTRVHVHFDHVRVE	6.54 ± 0.066
ATVIEYKYVRGMYLLMTYTY	-0.536 ± 1
AVASVETDGSKIYMMDVLNY	-1.16 ± 1.1
AVFSRYCLIYVIMLDHDTDP	5.03 ± 0.099
AVISGCFMRGLTTRIRTTLM	-0.073 ± 0.74
AVLFRRVAFRHNWPW	0.995 ± 0.68
AVNSNDTRDGRCGVIAI	0.057 ± 0.31
AVQVLYRGTFLLPFWRVANV	-0.487 ± 1.1
AVVTPKMIMMGWTEGGINVR	-0.864 ± 0.76
AWEAPPYMCRDILRSWRGRL	0.757 ± 0.51
AWRKRH	0.746 ± 0.18
AWRVRTLQGFYGSDAWQSHD	-0.237 ± 0.79
AWYWN	-0.49 ± 0.33
AYASPCMQDLGRCLGRPRML	1.21 ± 0.31

Substance	amyloid nucleation score
AYGVSPI	-0.093 ± 0.35
AYLPHAHTT	-0.154 ± 0.33
AYLQGSLMEKICKISCPVDN	-0.387 ± 1.1
AYMKYHAIRLNARFCGS	3.53 ± 0.075
AYMYTMGYRSHHVTEVVVIW	-0.047 ± 0.49
AYRVWRRGVEMMRNPFLPVA	3.6 ± 0.064
AYYYVLRFRCLFTFYPQLTA	-0.428 ± 0.39
CAFVGKVSTARLVSSRNSFN	5.801 ± 0.045
CAKCVMCSNCPKNSGRILYR	-1.12 ± 1.1
CATSISMLEHQ	0.556 ± 0.2
CCCGRMTSVHVDKPDLYLPL	-0.047 ± 1.1
CCDRSAPAT	-0.12 ± 0.54
CCFCFDNLIIPRDCYANSDN	6.734 ± 0.03
CCLYYHMIKAWDTTGVRLVN	-1.4 ± 0.78
CCNMTHYDFSGYNDGAMQDC	-0.424 ± 0.76
CCWLAMRVRFTMASKLPNFE	3.34 ± 0.083
CCWRSNSRNTNVIPNLSLFR	3.94 ± 0.04
CDILPDLPGRFALVRKASHN	1.11 ± 0.45
CDMPLKLWTLAVLPLDVPYR	0.179 ± 0.49
CDPFYTSLGCSSN	2.85 ± 0.2
